Results reported in the DeepSol protein solubility set.

assay: soluble on expression in E. coli; label from the status in PepcDB or PDB records

**Q.** With “MGSDKIHHHHHHMHFVMIFLDGFGLGGDRDNPIMAAHTPYIDELLGGHYLWGQERRIESEQLILIPLDASLDVTGIPQSATGQTTLWTGVNGAKALGFHLNAYPNEKLAEIIKEKSIFKQLADQGKKVTFANTFTSHYDEMIASGKRRHTASTLSALAGGVPLRRIEDLLQGKGVYQDMTNEILRELEQEADIPLITSYEAGKNLGRLALDYDFTLYEFFQTDVRGHKQDWEKAVALIEQIDGFIGGFMSVVRHEDVTWLLTSDHGNIEDFRVKGHTQNPVPALGWSSKPLEWPQWERLEDVTPGIVRMILGTREL” as the sequence, how does the “soluble on expression in E. coli” value read?
**A.** not soluble

**Q.** Which “soluble on expression in E. coli” value does the source give for “MSLNMLVINGTPRKHGRTRIAASYIAALYHTDLIDLSEFVLPVFNGEAEQSELLKVQELKQRVTKADAIVLLSPEYHSGMSGALKNALDFLSSEQFKYKPVALLAVAGGGKGGINALNNMRTVMRGVYANVIPKQLVLDPVHIDVENATVAENIKESIKELVEELSMFAKAGNPGVEGGSHHHHHH” here?
**A.** soluble

**Q.** With “GNPLRKFKLVFLGEQSVGKTSLITRFMYDSFDNTYQATIGIDFLSKTMYLEDRTVRLQLWDTAGLERFRSLIPSYIRDSTVAVVVYDITNVNSFQQTTKWIDDVRTERGSDVIIMLVGNKTDLADKRQVSIEEGERKAKELNVMFIETSAKAGYNVKQLFRRVAAALPGMESTQDRSREDMIDIKLEK” as the sequence, how does the “soluble on expression in E. coli” value read?
**A.** soluble

**Q.** Which “soluble on expression in E. coli” value does the source give for “MTIYVVTPTYARLVQKAELVRLSQTLSLVPRLHWLLVEDAEGPTPLVSGLLAASGLLFTHLVVLTPKAQRLREGEPGWVHPRGVEQRNKALDWLRGRGGAVGGEKDPPPPGTQGVVYFADDDNTYSRELFEEMRWTRGVSVWPVGLVGGLRFEGPQVQDGRVVGFHTAWEPSRPFPVDMAGFAVALPLLLDKPNAQFDSTAPRGHLESSLLSHLVDPKDLEPRAANCTRVLVWHTRTEKPKMKQEEQLQRQGRGSDPAIEV” here?
**A.** soluble

**Q.** With “MGHHHHHHSHPKGVLPSHYYESFLEKKGPCDRDYKKFWAGLQGLTIYFYNSNRDFQHVEKLNLGAFEKLTDEIPWGSSRDPGTHFSLILRNQEIKFKVETLECREMWKGFILTVVELRVPTDLTLLPGHLYMMSEVLAK” as the sequence, how does the “soluble on expression in E. coli” value read?
**A.** not soluble

**Q.** Which “soluble on expression in E. coli” value does the source give for “MTALETQLTEIVEKEQGQKIIPFLQKLTQEERESLIPCLSRLEEYYNKFVQLEERTYGTRATSGQHHIIDLAALVIFPLKEFRKHEWGINTAHLNEIAAWHIPTWLDSYFVEGEGKEFGGFYNMDYEILMDWIERGILTISPSPQTIAGYLVNYIHTTPVLEKRDITINEHIWYLFEYDCGQNWHANPAKGYPYYTFQHFTENGKLDRMRVLKESLLAINRNFNKNLCSWFAGMFTALSPSVEEQLTLQPEMLAALSSPHSRPINIILGLLKNLCSHPRFLTDDFLDQTTVLFASDVKAVHQNTLGVLSKLAKEKKEYRDTICCAAAQGLMSRDESTQNKIVKLIQTFGETESPTLKEALSAYAETMLTSTKKELAAYLKDNVSDALSTDKVLLTTLDEQASVASFDYEPMPPILREDNRIQEITSIEDLIFLASQILDSNELYHFDLFLNALVEWNEQLEAKHITQWTPVLQRAYKLLINGGSSRNGILDSMMATFLIDYAKLLIKRFPVEAKELSTLHEKMVQKDELQKGQWRYRNLQRITIRQKSNKRTEFPIHKQLLYRTLDLLESNENRLPMLSTPTHMPAFIDPIVLIKRLGQYQQANAEPDDIDMQIALSRMALNNYPSQDFPTVLQELKGEYQSLFSFLIGAKDAVPQAPFAHPSWWMTAGLIKSPETVYTEFKDFSYSKSSREFLTGNFSWWTFQTPHSYTDYHNKVVNWTSSTLSFNVPEGENIHIVNKGKYDERVSYHSYDPHPLLVEMYSQIERYDDIQNDLPRLVWLAPNTPEPLFVWCIRCAIYDPMLNEVREVGITQATIEALHQLRHEWHETSYLLEASCMLVADKTSRSYAAGIWTDRVNTGCIDSARIGRILGSHQRTGWGPLKRLTDLIQQQMINVSPLHNRELELLLTSLIAELPEQPVKELKKLLEIYSELLSVNNSRVTDERILQLLEIWKNTANLKKVIVSINR” here?
**A.** not soluble

**Q.** Which “soluble on expression in E. coli” value does the source give for “MPVTQEEIIAGIAEIIEEVTGIEPSEITPEKSFVDDLDIDSLSMVEIAVQTEDKYGVKIPDEDLAGLRTVGDVVAYIQKLEEENPEAAQALRAKIESENPDAVANVQARLEAESK” here?
**A.** soluble

**Q.** Which “soluble on expression in E. coli” value does the source give for “RVARGWGGCGACGGSGIVGQGKGEPSRRRGRAAGRPQSMERGKMAEAESLETAAEHERILREIESTDTACIGPTLRSVYDGEEHGRFMEKLETRIRNHDREIEKMCNFHYQGFVDSITELLKVRGEAQKLKNQVTDTNRKLQHEGKELVIAMEELKQCRLQQRNISATVDKLMLCLPVLEMYSKLRDQMKTKRHYPALKTLEHLEHTYLPQVSHYRFCKVMVDNIPKLREEIKDVSMSDLKDFLESIRKHSDKIGETAMKQAQQQRNLDNIVLQQPRIGSKRKSKKDAYIIFDTEIESTSPKSEQDSGILDVEDEEDDEEVPGAQDLVDFSPVYRCLHIYSVLGARETFENYYRKQRRKQARLVLQPPSNMHETLDGYRKYFNQIVGFFVVEDHILHTTQGLVNRAYIDELWEMALSKTIAALRTHSSYCSDPNLVLDLKNLIVLFADTLQVYGFPVNQLFDMLLEIRDQYSETLLKKWAGIFRNILDSDNYSPIPVTSEEMYKKVVGQFPFQDIELEKQPFPKKFPFSEFVPKVYNQIKEFIYACLKFSEDLHLSSTEVDDMIRKSTNLLLTRTLSNSLQNVIKRKNIGLTELVQIIINTTHLEKSCKYLEEFITNITNVLPETVHTTKLYGTTTFKDARHAAEEEIYTNLNQKIDQFLQLADYDWMTGDLGNKASDYLVDLIAFLRSTFAVFTHLPVSGSCSYFVLYI” here?
**A.** soluble

**Q.** For “MSRLGYVMTKASAKNFKVYINGSARGYRNIIINGAKSWNPSPYLNTVTMGNDVKPNFTVSSSNTNKGSVLAVCNTTYYKSNKLIVKNEITLYKGFRSLSNNHKIETVAHEFGHGFGLGHVKTRNAIMLDKGFINKTKPQKDDFNGIKALYKLEHHHHHH”, which “soluble on expression in E. coli” value is on record?
**A.** soluble

**Q.** With “MIPMEELKVKKITNGTVIDHIDAGKALMVFKVLNVPKETSVMIAINVPSKKKGKKDILKIEGIELKKEDVDKISLISPDVTINIIRNGKVVEKLKPQIPDEIEGTLKCTNPNCITNKEKVRGKFKIESKNPLKIRCYYCEKFLNEVIFE” as the sequence, how does the “soluble on expression in E. coli” value read?
**A.** soluble

**Q.** Which “soluble on expression in E. coli” value does the source give for “MSTLAQLLDTKRTALAAELAGFIDRSVSQSSGISGVALKGAVAAAKKVRPDIVTKGAERLLPEVVEVLDPYWASFEASDSTHFGEFLEQHKSEVSDKILEVADRNAEKVDMPALKKAYGSLRGKAASFIEPNLPGLGQIMQNYMK” here?
**A.** not soluble

**Q.** Which “soluble on expression in E. coli” value does the source give for “MVSVSEIRKAQRAEGPATILAIGTANPANCVEQSTYPDFYFKITNSEHKTELKEKFQRMCDKSMIKRRYMYLTEEILKENPNVCEYMAPSLDARQDMVVVEVPRLGKEAAVKAIKEWGQPKSKITHLIVCTTSGVDMPGADYQLTKLLGLRPYVKRYMMYQQGAFAGGTVLRLAKDLAENNKGARVLVVCSEVTAVTFRGPSDTHLDSLVGQALFGDGAAALIVGSDPVPEIEKPIFEMVWTAQTIAPDSEGAIDGHLREAGLTFHLLKDVPGIVSKNITKALVEAFEPLGISDYNSIFWIAHPGGPAILDQVEQKLALKPEKMNATREVLSEYGNMSSACVLFILDEMRKKSTQNGLKTTGEGLEWGVLFGFGPGLTIETVVLRSVAI” here?
**A.** soluble

**Q.** Which “soluble on expression in E. coli” value does the source give for “MGSDKIHHHHHHMTSSAPLIDFAHDLRYEDIPVHVRSIVREQIIATVGSILGGAQLPVAKSFEQSILATFGRGESSAFGAGTGMSAASAALYNSGLAQLLDWEDWVLISHVGAAVVPVAWALAEERGLRLNDVIVAVTIGNEIAGRTSRAIQRGAYLGNGLPNHQIELPLVAGRLLGLDRRQLGYALGHSCYMAMENCPVGWTTDSKLLVNGLPAMWAIASANMARQDIVGRGDIVEHPAGYLATVSESIDFKELTRDIGVKWYTETLSTKKHAGCAYNLPAAECAMSIREEIAPEDVERIVVECSTATLYVGGRYDDFEPGVLDAYEQGLLTHVGLCFDTKFCVAAAYVHGDLIHEQYLVENATDARVKALYGKISLVPSERLQKAQFQDFKYGATVTVHGRDGRTATRTVEQMLGGYDRPFDHATKLADGARGLLPPEAVDGIVARLRDETGNPLASEISTLINGAP” here?
**A.** not soluble

**Q.** Which “soluble on expression in E. coli” value does the source give for “EVKLQESGGDLVQPGGSLKLSCAASGFTFSSYTMSWVRQTPEKRLEWVASINNGGGRTYYPDTVKGRFTISRDNAKNTLYLQMSSLKSEDTAMYYCVRHEYYYAMDYWGQGTTVTVSSAWRHPQFGG” here?
**A.** soluble

**Q.** With “VDLGGVRRRISLMARQHGPTAQRHVASPMTVDIARLGRRPGAMFELHDTVHSPARIGLELIAIDQGALLDLDLRVESVSEGVLVTGTVAAPTVGECARCLSPVRGRVQVALTELFAYPDSATDETTEEDEVGRVVDETIDLEQPIIDAVGLELPFSPVCRPDCPGLCPQCGVPLASEPGHRHEQIDPRWAKLVEMLGPESDTLRGER” as the sequence, how does the “soluble on expression in E. coli” value read?
**A.** not soluble

**Q.** Which “soluble on expression in E. coli” value does the source give for “MALDRLREALGEALFGQEEVIEALLAVLLARGHALLEGMPGLGKTLLAESLARASGLAYKRIQFTPDLLPQDLTGSEVYREGRFVFVPGPIFAQVVLADEINRAPPKVQSALLEAMQERAVTAGGVRHPLPEPFFVIATQNPLELEGTYPLPEAQLDRFTAKIPFRPPRREVWLRILTEEPKAPEPVEVDLLKAQEEAKEVRVAKEALEAITHVAFLTQEDQRLRMGLSPRGAKAWLSLARALAYLRGKPFVDWKELKDAAFLALPHRLFLTEEALYAGESAEGVLKEALRKGGIPLEHHHHHH” here?
**A.** soluble

**Q.** For “MKFIIKLFPEITIKSQSVRLRFIKILTGNIRNVLKHYDETLAVVRHWDNIEVRAKDENQRLTIRDALTRIPGIHHILEVEDVPFTDMHDIFEKALVQYRDQLDGKTFCVRVKRRGKHDFSSIDVERYVGGGLNQHIESARVKLTNPDVTVHLEVEDDRLLLIKGRYEGIGGFPIGTQEDVLSLISGGFDSGVSSYMLMRRGCRVHYCFFNLGGAAHEIGVRQVAHYLWNRFGSSHRVRFVAINFEPVVGEILEKIDDGQMGVILKRMMVRAASKVAERYGVQALVTGEALGQVSSQTLTNLRLIDNVSDTLILRPLISYDKEHIINLARQIGTEDFARTMPEYCGVISKSPTVKAVKSKIEAEEEKFDFSILDKVVEEANNVDIREIAQQTGQEVVEVETVNDFGPNDVILDIRSVDEQEDKPLKVEGIDVVSLPFYKLSTKFGDLDQNRTWLLWCERGVMSRLQALYLREQGFKNVKVYRP”, which “soluble on expression in E. coli” value is on record?
**A.** not soluble

**Q.** Which “soluble on expression in E. coli” value does the source give for “QGAVRKATAAEIAALPRQKVELVDPPFVHAHSQVAEGGPKVVEFTMVIEEKKIVIDDAGTEVHAMAFNGTVPGPLMVVHQDDYLELTLINPETNTLMHNIDFHAATGALGGGGLTEINPGEKTILRFKATKPGVFVYHCAPPGMVPWHVVSGENGAIMVLPREGLHDGKGKALTYDKIYYVGEQDFYVPRDENGKYKKYEAPGDAYEDTVKVMRTLTPTHVVFNGAVGALTGDKAMTAAVGEKVLIVHSQANRDTRPHLIGGHGDYVWATGKFNTPPDVDQETWFIPGGAAGAAFYTFQQPGIYAYVNHNLIEAFELGAAAHFKVTGEWNDDLMTSVLAPSGT” here?
**A.** soluble

**Q.** For “MPSVISTDVLIVGAGVAGLWLNARLRRQGFSTVLVESASLGGGQSLKSQGIIHGGAKYALHGALSGASEAIADMPRRWREALDGKGELDLSGVRLLSEAHYLWSPGTIAGNLTSFFASKAVRGRVDQVKGEQLPPALQNPKFKGKVYRLAELVVDVPSLIKRLAELAEDSLLAGQKIEPLYEADELIGLRVDGRDIHAQRIVLSAGGGTADLLNALGVSQPQMQRRPLHMVLVKGPTLKPLFAHCLGGGPKPRITVTTHPAADGQCVWYLGGDLAEADGVAREPDAQIAVARKELEALLPWVDLSQAQWATLRVDRAEPAQSGLVRPDNAFLDSQRRLMVGWPTKLALAPDFADRVLSHLSKDDIHPTPQAPLVDVPRPPLAIPVWDELLPLEHHHHHH”, which “soluble on expression in E. coli” value is on record?
**A.** not soluble
